# What was measured:
# [1] = target: cell surface Env of HIV-1 infected (p24+) CD4+ T cells (IMCs subtype AE CM235, subtype B BaL, subtype C 1086.C, as a group); experiment: flow cytometry, indirect staining of p24+ CD4+ T cells infected with BaL, CM235 or 1086.C IMC (FIG. 27)
# [2] = target: cell surface Env of HIV-1 infected (p24+) CD4+ T cells (IMCs subtype AE CM235, subtype B BaL, subtype C 1086.C, as a group); experiment: flow cytometry, staining of p24+ CD4+ T cells infected with BaL, CM235 or 1086.C IMC (FIG. 27)
# [3] = target: cell surface Env of HIV-1 infected (p24+) CD4+ T cells (IMCs subtype AE CM235, subtype B BaL, subtype C 1086.C, as a group); experiment: flow cytometry, negative control staining of p24+ IMC-infected CD4+ T cells (FIG. 27)
Substance,% of HIV-1 infected (p24+) CD4+ T cells recognized [3] [%],other results
7B2 mAb (anti-gp41 cluster I) (antibody),–,% of HIV-1 infected (p24+) CD4+ T cells recognized [1]: 24 to 38%
HIV-1 × Fluorescein Bi-Specific Diabody (7B2 × 4420) (bispecific antibody),–,% of HIV-1 infected (p24+) CD4+ T cells recognized [2]: 66 to 78%
Palivizumab mAb (anti-RSV) (antibody),< 5,–
secondary conjugated Abs (secondary fluoresceinated anti-human IgG Abs) (antibody),< 5,–

# — US20180148497A1
